Experimental findings from paper PMC10397247 are described below.

What all share (assay): two-hybrid library CCNG1;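 note: natural log of median RNA to DNA barcode read ratio; higher means stronger binding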
One assay has as its target T1, 4H491-bA.
T1 chain: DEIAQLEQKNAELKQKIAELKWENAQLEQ

For a further assay, the target named is T2, O16-bN.
T2 chain: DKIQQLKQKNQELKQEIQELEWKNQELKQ

Another assay concerns the target T3, 4H56-bH.
T3 chain: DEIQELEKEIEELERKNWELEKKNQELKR

In another assay the target is T4, 4H3041-bH.
T4 chain: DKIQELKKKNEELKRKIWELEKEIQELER

The target in a further assay is T5, 4H730-bH.
T5 chain: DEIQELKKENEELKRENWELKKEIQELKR

For another assay, the target named is T6, 4H796-bH.
T6 chain: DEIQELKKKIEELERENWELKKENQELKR

Another assay addresses T7, 4H2931-bH.
T7 chain: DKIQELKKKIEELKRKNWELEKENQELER

In another assay the target is T8, 4H932-bH.
T8 chain: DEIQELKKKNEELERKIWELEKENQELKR

Another assay addresses T9, 4H3381-bH.
T9 chain: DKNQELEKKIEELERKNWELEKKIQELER

Another assay deals with T10, 4H3364-bH.
T10 chain: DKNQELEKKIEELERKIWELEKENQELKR

In another assay the target is T11, 4H949-bH.
T11 chain: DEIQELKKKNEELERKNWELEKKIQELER

The target of a further assay is T12, 4H349-bH.
T12 chain: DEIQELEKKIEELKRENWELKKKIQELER

The next assay addresses T13, 4H3297-bH.
T13 chain: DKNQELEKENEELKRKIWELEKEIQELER

Another assay deals with T14, 4H2859-bH.
T14 chain: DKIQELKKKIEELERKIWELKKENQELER

Another assay deals with T15, 4H855-bN.
T15 chain: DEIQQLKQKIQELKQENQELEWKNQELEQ

Another assay has as its target T16, 4H575-bN.
T16 chain: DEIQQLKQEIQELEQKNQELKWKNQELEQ

A further assay addresses T17, 4H797-bN.
T17 chain: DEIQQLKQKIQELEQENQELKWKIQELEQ

The next assay has as its target T18, 4H3112-bN.
T18 chain: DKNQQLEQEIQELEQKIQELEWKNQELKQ

In another assay the target is T19, 4H3010-bN.
T19 chain: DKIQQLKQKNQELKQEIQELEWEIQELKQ

The target of another assay is T20, 4H968-bN.
T20 chain: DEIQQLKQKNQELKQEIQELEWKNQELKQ

A further assay has as its target T21, 4H346-bN.
T21 chain: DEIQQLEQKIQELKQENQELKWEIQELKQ

The target in the next assay is T22, 4H2702-bN.
T22 chain: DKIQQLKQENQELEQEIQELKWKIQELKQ

In another assay the target is T23, 4H780-bN.
T23 chain: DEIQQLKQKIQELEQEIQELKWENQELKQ

A further assay concerns the target T24, 4H683-bN.
T24 chain: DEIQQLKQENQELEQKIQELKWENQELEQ

Another assay concerns the target T25, 4H953-bN.
T25 chain: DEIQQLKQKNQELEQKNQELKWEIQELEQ

The target in another assay is T26, 4H3057-bN.
T26 chain: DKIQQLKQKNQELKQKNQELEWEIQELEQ

The next assay deals with T27, 4H2673-bN.
T27 chain: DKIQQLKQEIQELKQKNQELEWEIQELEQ

In the next assay the target is T28, 4H457-bN.
T28 chain: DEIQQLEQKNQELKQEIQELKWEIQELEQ

The next assay addresses T29, 4H4073-bN.
T29 chain: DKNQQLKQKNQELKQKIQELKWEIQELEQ

The next assay concerns the target T30, 4H918-bN.
T30 chain: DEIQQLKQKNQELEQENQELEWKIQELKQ

In another assay the target is T31, 4H3926-bN.
T31 chain: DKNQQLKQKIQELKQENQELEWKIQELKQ

The target of another assay is T32, 4H754-bN.
T32 chain: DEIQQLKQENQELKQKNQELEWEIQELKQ

The next assay has as its target T33, 4H3427-bN.
T33 chain: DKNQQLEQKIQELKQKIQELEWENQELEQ

The next assay addresses T34, P6mSN.
T34 chain: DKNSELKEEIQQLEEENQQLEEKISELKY

The next assay concerns the target T35, P8mSN.
T35 chain: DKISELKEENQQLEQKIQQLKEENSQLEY

In the next assay the target is T36, P7mSN.
T36 chain: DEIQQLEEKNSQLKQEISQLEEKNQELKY

In a further assay the target is T37, P9mSN.
T37 chain: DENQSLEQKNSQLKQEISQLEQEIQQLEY

The target of a further assay is T38, P8bHq.
T38 chain: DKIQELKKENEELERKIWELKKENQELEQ

The next assay concerns the target T39, P9bHq.
T39 chain: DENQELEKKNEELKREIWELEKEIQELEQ

The next assay addresses T40, P6bHq.
T40 chain: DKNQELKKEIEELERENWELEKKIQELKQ

The target in a further assay is T41, P7bHq.
T41 chain: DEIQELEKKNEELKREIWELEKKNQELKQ

For another assay, the target named is T42, P5bHq.
T42 chain: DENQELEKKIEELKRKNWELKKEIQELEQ

As for DEIAQLEQKNAELKQKIAELKWENAQLEQ [4H491-bA], the results for the interaction score in the assay with 4H491-bA and in the assay with O16-bN were -0.879 and 0.749, respectively.
With DKIQELKKKIEELERKIWELKKENQELER [4H2859-bH], the interaction score is 0.547 in the assay with 4H56-bH; 1.2 in the assay with 4H3041-bH; -0.682 with 4H730-bH; 1.08 with 4H491-bA; -0.548 with 4H796-bH; -0.182 with 4H2931-bH. The interaction score with 4H932-bH is -0.5; in the assay with 4H3381-bH it was 0.199; with 4H3364-bH, 1.02; in the assay with 4H949-bH it was -1.01; with 4H349-bH it was -0.11; with 4H3297-bH, 0.299. This molecule also gave an interaction score in the assay with 4H2859-bH of 1.11.
As to DKIQQLKQEIQELKQKNQELEWEIQELEQ [4H2673-bN], the interaction score with 4H855-bN was -1.2; with 4H575-bN, -1.53; in the assay with 4H797-bN it was -0.839; with 4H3112-bN, -0.658; with 4H3010-bN, 1.39; in the assay with 4H968-bN, -0.538. The interaction score in the assay with 4H346-bN is -0.543; with 4H3381-bH, -0.468; in the assay with 4H2702-bN, -0.755; with 4H780-bN, -1.43; with 4H683-bN, -0.954; with 4H953-bN, -1.21. Further, the interaction score with 4H3057-bN was -0.47; with 4H2673-bN it was 0.657; in the assay with 4H457-bN it was -1.88; with 4H4073-bN, -1.63; with 4H918-bN, -1.57; in the assay with 4H3926-bN it was -0.806. Moreover, the figures for the interaction score with 4H754-bN and with 4H3427-bN were -1.07 and -1.55, respectively.
On to DKNSELKEEIQQLEEENQQLEEKISELKY [P6mSN], for which the interaction score with P6mSN is 0.276; in the assay with P8mSN, -1.19; with P7mSN, -0.951; with P9mSN it was -0.248.
Take DENQELEKKIEELKRKNWELKKEIQELEQ [P5bHq]: the interaction score is 0.944 with P8bHq; -0.517 with P9bHq; 0.519 with P6bHq; -0.58 with P7bHq; -1.33 with P5bHq.
